{"source": "patent US20180142032A1", "about": "(Sanofi, published 2018)", "binders": {"B1": {"name": "MAb1 (antibody, mouse IgG2a, kappa)", "heavy": "QVQLQQSGAELVKPGASVKMSCKASGYIFTNYNIHWVKKSPGQGLEWIGAIYPGNGDAPYSQKFKDKATLTADKSSSTTYMQLSRLTSEDSAVYYCVRANWDVAFAYWGQGTLVSVSAAKTTAPSVYPLAPVCGDTTGSSVTLGCLVKGYFPEPVTLTWNSGSLSSGVHTFPAVLQSDLYTLSSSVTVTSSTWPSQSITCNVAHPASSTKVDKKIEPRGPTIKPCPPCKCPAPNLLGGPSVFIFPPKIKDVLMISLSPIVTCVVVDVSEDDPDVQISWFVNNVEVHTAQTQTHREDYNSTLRVVSALPIQHQDWMSGKEFKCKVNNKDLPAPIERTISKPKGSVRAPQVYVLPPPEEEMTKKQVTLTCMVTDFMPEDIYVEWTNNGKTELNYKNTEPVLDSDGSYFMYSKLRVEKKNWVERNSYSCSVVHEGLHNHHTTKSFSRTPGK", "light": "DIQMTQSPPSLSASLGGKVTITCKASQDIDRYMAWYQDKPGKGPRLLIHDTSTLQPGIPSRFSGSGSGRDYSFSISNLEPEDIATYYCLQYDNLWTFGGGTKLEIKRADAAPTVSIFPPSSEQLTSGGASVVCFLNNFYPKDINVKWKIDGSERQNGVLNSWTDQDSKDSTYSMSSTLTLTKDEYERHNSYTCEATHKTSTSPIVKSFNRNEC", "notes": "murine monoclonal IgG, kappa, from hybridoma; also called murine MAb1"}}, "target": "T1, LAMP1::histag (human, UniProt P11279 29-382)", "T1 construct": "extracellular domain without signal peptide, C-terminal 6 His tag, made in HEK293 cells; also called recombinant human LAMP1; human LAMP1 (29-382)", "T1 sequence": "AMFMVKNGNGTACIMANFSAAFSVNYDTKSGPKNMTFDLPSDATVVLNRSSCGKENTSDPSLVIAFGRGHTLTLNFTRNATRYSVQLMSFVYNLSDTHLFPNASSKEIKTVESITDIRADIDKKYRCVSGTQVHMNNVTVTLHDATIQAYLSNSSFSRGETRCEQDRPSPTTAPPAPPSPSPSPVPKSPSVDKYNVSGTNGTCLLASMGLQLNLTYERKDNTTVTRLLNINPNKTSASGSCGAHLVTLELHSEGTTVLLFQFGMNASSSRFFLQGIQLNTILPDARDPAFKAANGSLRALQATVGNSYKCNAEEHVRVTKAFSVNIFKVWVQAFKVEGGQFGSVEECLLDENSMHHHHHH", "assay": "ELISA on secreted LAMP1::histag", "data": [{"binder": "B1", "values": [{"measurement": "EC50", "result": 0.16, "unit": "nM"}]}]}
